Patent US7968297B2, “Method for identification, isolation and production of antigens to a specific pathogen” (Intercell AG, priority 2001, dated 2011)

B1: IsaA, possibly adhesion/aggregation (protein, listed as Staphylococcus aureus)
chain: MKKTIMASSLAVALGVTGYAAGTGHQAHAAEVNVDQAHLVDLAHNHQDQLNAAPIKDGAYDIHFVKDGFQYNFTSNGTTWSWSYEAANGQTAGFSNVAGADYTTSYNQGSNVQSVSYNAQSSNSNVEAVSAPTYHNYSTSTTSSSVRLSNGNTAGATGSSAAQIMAQRTGVSASTWAAIIARESNGQVNAYNPSGASGLFQTMPGWGPTNTVDQQINAAVKAYKAQGLGAWGF
B2: extracellular matrix and plasma binding protein (protein, listed as Staphylococcus aureus)
chain: MNSNHAKASVTESVDKKFVVPESGINKIIPAYDEFKNSPKVNVSNLTDNKNFVASEDKLNKIADSSAASKIVDKNFVVPESKLGNIVPEYKEINNRVNVATNNPASQQVDKHFVAKGPEVNRFITQNKVNHHFITTQTHYKKVITSYKSTHVHKHVNHAKDSINKHFIVKPSESPRYTHPSQSLIIKHHFAVPGYHAHKFVTPGHASIKINHFCVVPQINSFKVIPPYGHNSHRMHVPSFQNNTTATHQNAKVNKAYDYKYFYSYKVVKGVKKYFSFSQSNGYKIGKPSLNIKNVNYQYAVPSYSPTHYVPEFKGSLPAPRV
B3: ORF0355 (protein, listed as Staphylococcus epidermidis)
chain: MSKHSATLVIMFLITLLPIFQYQASAHATLEKSTPQQQGVIKDKPEAIKLEFNEPVNTKYSSVTLFDDKGKKIKDLKPITTGWSQTVVFSSEQIVNGTNTIEWHTVSADGHEVGDTFEFSVGKVRLKM
B4: ORF0442 (protein, listed as Staphylococcus epidermidis)
chain: MKKIKTISTLVAGLGIAFLGHTTHADAAENNNQQQSTYNYSTTEVSFSNSGNLYTSGQCTWYVYDKTGGKIGSTWGNANSWATAAQAAGFTVNNTPEEGAIMQSSEGAFGHVAFVESVNNDGSITVSEMNYDGGPFAISTRTISASEASSYNYIHLN
B5: ORF0979 (protein, listed as Staphylococcus epidermidis)
chain: MMIIVMLILSYLIGAFPSGLIIGKLFFKKDIRQYGSGNTGATNSFRVLGRPAGFIVTFLDIFKGFITVFFPLWFPVHADGVISTFFTNGLIVGLFAILGHVYPIYLKFNGGKAVATSAGVVLGVNPILLLILAIIFFSVLKIFKYVSLSSIIAAISCVIGSIIIHDYILLAVSGIVSIILIIRHKSNIVRIFKGEEPKIKWM
B6: ORF2098 (protein, listed as Staphylococcus epidermidis)
chain: MIKKNKEELNDMEYLVTQENGTEPPFQNEYWNHFEKGIYVDKLSGKPLFTSEDKFESNCGWPSFSKALNDDEIVELVDKSFGMIRTEVRSEKANSHLGHVFNDGPKEKGGLRYCINSAAIQFIPYDKLEELGYGDLIKHFKK
B7: ORF2260 (protein, listed as Staphylococcus epidermidis)
chain: MARIATKLGYPESNSFVTNTVIEFVLHNEAYPRLYRIKTRDTNLIKISQANEISRQITNGTMTLEEAKYQLEEIYVAKRDSSLPFKGIAAAIIATSFLYLQGGRLVDIITAVLAGTIGYLVVEILDRKLHAQFIPEFIGSLVIGIISVIGHAFVPSGDLATIIIAAVMPIVPGVLITNAIQDLFGGHMLMFTTKSLEALVTAFGIGAGVSSILILV
B8: ORF2669 (protein, listed as Staphylococcus epidermidis)
chain: MHYLKKVTIYISLLILVSGCGDSKETEIKQNFNKMLNVYPTKNLEDFYDKEGYRDEEFDKDDKGTWIIRSEMTKQPKGKIMTSKGMVLHMNRNTRSTTGYYVIRKISEDNKSEIDDEEKKYPIKMVNNKIIPTQKINDNKLKNEIENFKFFVQYGSFKNSDDYKEGDIEYNPNAPNYSAQYHLSNDDYNIKQLRKRYDIKTKKTPRLLMRGAGDPKGSSVGYKNLEFTFVKNNEENIYFTDSINFNPSKGKSL
B9: ORF2671 (protein, listed as Staphylococcus epidermidis)
chain: VKHSKKLLLCISFLLITFFIGGCGFMNKDDGKETEIKQNFNKMLNVYPTKNLENFYDKEGYRDEEFDKDDKGTWIVHSKMVIEPKGKNMESRGMVLFINRNTRTSKGYFIVNEIEKDRKGRPINNKKKYPVKMKNNKIIPTKPISNDKLKKEIENFKFFVQYGNFKDIKNYKDGDISYNPNVPSYSAKYQLSNNEYNVQQLRKRYDIPTKKVPKLLLKGDGDLKGSSVGSKNLEFTFIENKEENIYFTDSVLFSPSEDNES
B10: ORF2673 (protein, listed as Staphylococcus epidermidis)
chain: MRYLKKVTIYISLLILVSGCGNGKETEIKQNFNKMLDMYPTKNLEDFYDKEGYRDEEFDKKDKGTWIVGSTMTIEPKGKYMESRGMFLYINRNTRTTKGYYYVRKTTDDSKGRLKDDEKRYPVKMEHNKIIPTKPIPNDKLKKEIENFKFFVQYGDFKNLKDYKDGDISYNPNVPSYSAKYQLSNNDYNVKQLRKRYDIPTNQAPKLLLKGDGDLKGSSIGSKSLEFTFIENKEENIFFSDGVQFTPSEDSES
B11: ORF2694 (protein, listed as Staphylococcus epidermidis)
chain: MKHSSKIIVFVSFLILTIFIGGCGFINKEDSKEAEIKQNFNKTLSMYPTKNLEDFYDKEGYRDEEFDKDDKGTWIINSKMIVEPKGEEMEARGMVLRINRNTRTAKGNFIIKRITENNKGIPDVKDKKYPVKMEHNKIIPTKQIKDKKLKKEIENFKFFVQYGNFKNLKDYKDGEISYNPNVPSYSAQYQLNNYDNNVKQLRKRYDIPTNQAPKLLLKGTGDLKGSSVGYKHLEFTFVENKKENIYFTDSINFNPSRGN
B12: CRF0145 (protein)
chain: FKYKKNRKIPSIMMQQIKITILYSYLTINKWEYLLNITPNKTVLPATGQKELILAVFTMFKVSKSFSLILTYFFGISQLIIGKKSANHVLTKSIIKYSSLYLIILYLGFLLIFSVSQSNVSTSFQLVLY
B13: ORF1848 (protein, listed as Staphylococcus aureus)
chain: MKLKSFVTATLALGLLSTVGAALPSHEASADSNNGYKEMTVDGYHTVPYTISVDGITALHRTYFIFPENKNVLYQEIDSKVKNELASQRGVTTEKINNAQTATYTLTLNDGNKKVVNLKKNDDAKNSIDPSTIKQIQIVVK
B14: CRF0497 (protein)
chain: LLHHLVLLHLSQLILAQLPYQELTLVRKMDSHVLGLYPLIVYVQFQMFPYHRYQNQSIHRFDLQYFH
B15: CRF1763 (protein)
chain: FEATKVPHNGSTLINNALNFNEALICLSLKVNIALIIPKIATIRGIVMLGYCGICKKAPRPAITPHTNAIYRNCFKSFTPKLLLHYYT
B16: ORF2931 (protein, listed as Staphylococcus aureus)
chain: MKLKSLAVLSMSAVVLTACGNDTPKDETKSTESNTNQDTNTTKDVIALKDVKTSPEDAVKKAEETYKGQKLKGISFENSNGEWAYKVTQQKSGEESEVLVADKNKKVINKKTEKEDTMNENDNFKYSDAIDYKKAIKEGQKEFDGDIKEWSLEKDDGKLVYNIDLKKGNKKQEVTVDAKNGKVLKSEQDH
B17: ORF2958 (protein, listed as Staphylococcus aureus)
chain: MKMKNIAKISLLLGILATGVNTTTEKPVHAEKKPIVISENSKKLKAYYNQPSIEYKNVTGYISFIQPSIKFMNIIDGNSVNNIALIGKDKQHYHTGVHRNLNIFYVNEDKRFEGAKYSIGGITSANDKAVDLIAEARVIKEDHTGEYDYDFFPFKIDKEAMSLKEIDFKLRKYLIDNYGLYGEMSTGKITVKKKYYGKYTFELDKKLQEDRMSDVINVTDIDRIEIKVIKA
B18: CRF2155 (protein)
chain: ILSAALSTPALLNNTSILPNCSFMSDTKSTTCCSLALSTLYAFALSPLLLILSTVSDTASAMSTANTYAPY
B19: CRF2349 (protein)
chain: SIIVNTVSKCIKVRLVGISIATTFLNVACGFSKIRRANFSIACADVRSETPIAKTSLDKTSSSPPSILNGQSRSNQIGIFASLNLG
B20: CRF2729 (protein)
chain: GMKMISISDEINCLICCNCVGLCSFISSAKYIFWISISSNTVAKTSIKRGKFLVTARSIRR

tested on: antibodies in human patient sera; experiment: Western blot reactivity of selected clones with human sera; format: binding; conditions: 10 to 30 different human patient sera
Experimental: For Western blot analysis approximately 10 to 20 μg of total cellular protein was separated by 10% SDS-PAGE and blotted onto HybondC membrane (Amersham Pharmacia Biotech, England). The LamB or FhuA fusion proteins were detected using human serum as the primary antibody at a dilution of 1:5000 and anti human IgG antibodies coupled to HRP at a dilution of 1:5000 as secondary antibodies. Detection was performed using the ECL detection kit (Amersham Pharmacia Biotech, England). Alternatively, rabbit anti FhuA or mouse anti LamB antibodies were used as primary antibodies in combination with the respective secondary antibodies coupled to HRP for the detection of the fusion proteins.
Subsequent sequencing of a larger number of randomly picked clones (500 to 800 per screen) led to the identification of the gene and the corresponding peptide or protein sequence that was specifically recognized by the human patient serum used for screening. The frequency with which a specific clone is selected reflects at least in part the abundance and/or affinity of the specific antibodies in the serum used for selection and recognizing the epitope presented by this clone. […] All clones that are presented in Table 2 have been verified by Western blot analysis using whole cellular extracts from single clones to show the indicated reactivity with the pool of human serum used in the screen.
10 to 30 different human patient sera were subsequently used to evaluate the presence of antibodies against the selected immunogenic peptide sequences that have been discovered in the screen according to the present invention. To eliminate possible cross-reactivity with proteins expressed by E. coli, all sera were pre-adsorbed with a total cellular lysate of E. coli DHa cells expressing FhuA protein.
This analysis is summarized in Table 2 and as an example shown in FIG. 4 and is indicative of the validity of the present screen.

Q: How did the “antibodies against selected epitope in patients” value turn out when IgG binding protein A [compound 2548] was run?
A: production of antibodies in a large number of patients

Q: How did the “antibodies against selected epitope in patients” value turn out when B1 was run?
A: production of antibodies in a large number of patients

Q: With B2 as the molecule, how does the “antibodies against selected epitope in patients” value read?
A: production of antibodies in a large number of patients

same assay, conditions: clone and its aa region are named in the cell; prefix A/B/C = screen the clone came from

Q: For B1, which “Serum reactivity with relevant region (positive/total)” value (“Serum reactivity … (positive/total)” for short) is on record?
A: B: SELAA47(238-259): 12/12

Q: With B3 as the molecule, how does the “Serum reactivity … (positive/total)” value read?
A: C: GSBBL39(63-86): 1/1

Q: How did the “Serum reactivity … (positive/total)” value turn out when B4 was run?
A: C: GSBBM60(65-84): 1/1

Q: For B5, which “Serum reactivity … (positive/total)” value is on record?
A: B: SELAH01(26-49): 5/12

Q: Which “Serum reactivity … (positive/total)” value does the source give for B6 here?
A: A: SEFAQ50(15-57): 5/12

Q: Which “Serum reactivity … (positive/total)” value does the source give for B7 here?
A: B: SELAG77(123-142): 12/12

Q: B8 was tested. Which “Serum reactivity … (positive/total)” value did it give?
A: B: SELAE27(22-51): 5/12

Q: B9 was tested. Which “Serum reactivity … (positive/total)” value did it give?
A: B: SELAD21(36-61): 5/12

Q: Which “Serum reactivity … (positive/total)” value does the source give for B10 here?
A: B: SELAE25(23-54): 2/12

Q: B11 was tested. Which “Serum reactivity … (positive/total)” value did it give?
A: B: SELAB26(27-60): 5/12

same assay, conditions: positive sera / total sera tested; clone and its aa region named in the cell

Q: “ARF0280 (VYMLSSTRFIVRWYNNCNKSTNIINERSSGSIKSDGNSSCFFK)” was tested. Which “Serum reactivity … (positive/total)” value did it give?
A: SALAM59(25-43): 1/1

Q: B12 was tested. Which “Serum reactivity … (positive/total)” value did it give?
A: SALAZ40(81-90): 2/12

Q: B13 was tested. Which “Serum reactivity … (positive/total)” value did it give?
A: E: GSBZB15(75-90): 6/41

Q: How did the “Serum reactivity … (positive/total)” value turn out when B14 was run?
A: GSBXF31(19-34): 1/7

Q: For B15, which “Serum reactivity … (positive/total)” value is on record?
A: C: GSBYI30(1-22): 1/1

Q: How did the “Serum reactivity … (positive/total)” value turn out when B16 was run?
A: E: GSBZA13(22-37): 7/41

Q: B17 was tested. Which “Serum reactivity … (positive/total)” value did it give?
A: F: SALBB59(154-168): 4/41

Q: With B18 as the molecule, how does the “Serum reactivity … (positive/total)” value read?
A: SALAQ54(54-66): 1/12

Q: How did the “Serum reactivity … (positive/total)” value turn out when B19 was run?
A: GSBXC92(52-67): 2/11

Q: How did the “Serum reactivity … (positive/total)” value turn out when B20 was run?
A: SALAQ25(40-56): 1/1
